# B1: HDV Ribozyme (parent)
# chain: GGCCGGCAUGGUCCCAGCCUCCUCGCUGGCGCCGGCUGGGCAACAUUCCGAGGGGACCGUCCCCUCGGUAAUGGCGAAUGGGACCCA
# Variants of: B1
# Assay: self-cleavage, relative activity (ratio to wild type); higher = more cleavage; co-transcriptional
row,Variant,self-cleavage
1,C75U A87U,0.185
2,C66U G68U,0.935
3,G10U A77U,0.174
4,C49U A56C,0.773
5,C36G,0.13
6,G31A C85U,0.404
7,G39A G80U,0.178
8,G31A G38C,0.142
9,G53A C64A,0.639
10,A43U G53A,0.407
11,A51U C57U,0.801
12,C14G C15A,0.312
13,G28C A70U,0.101
14,C7G C32U,0.104
15,C14A G38C,0.141
16,C14U C41U,1.11
17,C32U U65A,1.08
18,C36A A83U,0.0219
19,G6A A70C,0.527
20,C36A C62U,0.175
21,C3U C13A,0.138
22,U27G G35A,0.295
23,C30U A78G,0.208
24,G59U G80U,0.19

row,Variant,self-cleavage
1,G5A C57A,0.0449
2,U20A C66A,0
3,G59U C62G,0.748
4,U12A A70G,0.277
5,A8G U37C,1.22
6,C22U A70U,0.587
7,U60A G73C,0.532
8,C49G C62A,0.739
9,U65C G74U,0.523
10,G31C A45C,0.104
11,C13A A87C,0.222
12,C13U C26A,1.23
13,G35C A77U,0.181
14,G35C A77G,0.18
15,A51U C61U,0.781
16,U23G U27A,0.594
17,C26A C85G,1.15
18,U23G A42U,0.0997
19,U46A G68A,0.65
20,A16G U65C,1.26
21,G34C G38C,0.122
22,U47A C48G,0.598
23,G5C G28U,0
24,G5C G39C,0.0462

row,Variant,self-cleavage
1,G55A U69C,0.918
2,A16U G76U,1.05
3,U23A G68U,1.09
4,G50U A71G,0.78
5,C48A G82A,0.332
6,C13G U20C,0.158
7,C22A U37A,0.0554
8,G67A U79C,0.509
9,C41U C58G,0.889
10,G1A A43U,0.0437
11,A70G G81U,0.0978
12,G74U G82C,0.0723
13,G17C C22G,0.208
14,C21A C61U,0.0963
15,U47C C58A,0.779
16,C63U G81A,0.521
17,G39A A71C,0.332
18,G34U A87C,0.119
19,C24G A77G,0.298
20,G25A G80A,0.126
21,G39A U47G,0.185
22,C15A A56C,0.782
23,G29C C41G,0.229
24,A8G A77U,0.0978

row,Variant,self-cleavage
1,G74A G80A,0.182
2,G74A G80C,0.167
3,C84G,0.688
4,C19A G25C,0.0386
5,G5C C7U,0.0462
6,G5C C7A,0.119
7,C63U G76A,0.855
8,C21G G76U,0.0583
9,G17U C63G,0.509
10,G2C G68A,0.0504
11,C7U U37A,0.0739
12,G25U G52A,0.166
13,C66U G73A,0.66
14,C30G G50A,0.0733
15,C33A G68C,0.0449
16,A45U C48U,0.79
17,U69C G76U,1.29
18,A83U A87U,0.507
19,A43C C48U,0.619
20,C26A U37C,1.13
21,G25C A71U,0.19
22,A8G C75U,0.133
23,G2U G17A,0
24,A45C C84U,0.499

row,Variant,self-cleavage
1,A45C C84G,0.297
2,G5A A43G,0.131
3,C63A A78G,0.404
4,C18U A77U,0.0678
5,U27A G34U,0.272
6,C44G A83U,0.38
7,G1U U60A,0.343
8,C41G G76U,0.989
9,C36U A42U,0.208
10,U20A U37G,0.277
11,C32G U65G,0.119
12,G34U C49G,0.166
13,U46C U60A,0.674
14,A16C G31U,0
15,G6U A16U,0.305
16,A51U G73C,0.415
17,C4A C49U,0.282
18,A45C C75U,0.201
19,C36U U46C,0.481
20,U9C G59C,1.09
21,A16C U23A,0.89
22,C22U C26U,0.847
23,G34U U46A,0.0639
24,G2C C85U,0.0287

row,Variant,self-cleavage
1,C32G G38C,0.0462
2,G11C C49A,0.388
3,A42G A45G,0.383
4,C4G G80A,0.0203
5,C44A A45U,0.95
6,G6U A87U,0.591
7,G28C U47C,0.0665
8,U12A C26G,0.609
9,G1U G11U,0.439
10,C21A G55A,0.129
11,G5A U79A,0.192
12,G28U C44U,0.0297
13,A51C U60G,0.95
14,C7U U23C,0.516
15,A43C G80A,0.124
16,U46G U65A,0.582
17,U27A C57G,0.8
18,G82U C85G,0.446
19,G29A U60C,0.0997
20,U47A G73U,0.142
21,C26A A77C,0.266
22,G73U C86A,0.543
23,U20C G59C,0.0898
24,G25A G54U,0.202

row,Variant,self-cleavage
1,U20C C41U,0.0449
2,G10A C33U,0.554
3,U20G U60A,0
4,C7G C49U,0.237
5,U9G C30U,0.853
6,G34C G74U,0.136
7,C33G U47C,0.317
8,G25U C36G,0.108
9,A51G A56G,1.08
10,G11U C61A,0.355
11,A43G U65C,0.522
12,C62G A71C,0.443
13,C44G A78G,0.246
14,G35U G59A,0.415
15,C4G C13G,0
16,A70C G82A,0.181
17,C33A G39C,0.0678
18,U12G U47G,1.21
19,A45U A56U,0.831
20,G10U C26G,0.677
21,G11A C24G,0.0747
22,U9C G76A,1.05
23,C26G A71U,0.612

# Reference: the RNAGym collection of RNA variant scans (doi:10.7554/elife.80360)
